Values of other authors in paper PMC6783463.

Biological target: PTH (15-34) 15-34 (Homo sapiens) (UniProt P01270)
Settings: cited from earlier work

Sequence of UniProt P01270 (P01270 15-34): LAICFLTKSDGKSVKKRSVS

## PTH1R ECD (from UniProt Q03431)
  Kd: 1000 nM
